Results taken from patent US20140179896A1 (published 2014).
Numbering of substitutions follows the chain as printed.

B1: 3A2 PR3 (designed binder)
chain: EVVAATPTSLLISWRHPHFPTRYYRITYGETGGNSPVQEFTVPLQPPTATISGLKPGVDYTITGYAVTWSQNNRELFTPISINYRT
notes: Del 1-8
B2: 3′A6 PR4 (designed binder)
chain: B1 chain with W69L, S70A, N73G, R74H, F77L
notes: Del 1-8
B3: 3′B10 PR4 (designed binder)
chain: B1 chain with W69L, S70A, N72T, N73G, F77L
notes: Del 1-8
B4: 3′A9 PR4 (designed binder)
chain: B1 chain with W69L, S70A, Q71H, N73D, F77L
notes: Del 1-8
B5: 3′B12 PR4 (designed binder)
chain: B1 chain with W69V, S70A, Q71H, N72E, F77L
notes: Del 1-8
B6: 3B4 PR3 (designed binder)
chain: B1 chain with W69V, S70G, N73E, R74H, F77L
notes: Del 1-8
B7: 3D12 PR3 (designed binder)
chain: B1 chain with W69L, S70G, N73D, E75Q, F77L, T78V
notes: Del 1-8
B8: 3C7 PR3 (designed binder)
chain: B1 chain with W69R, S70G, Q71L, N73D, R74G, F77L
notes: Del 1-8
B9: 3′B8 PR4 (designed binder)
chain: B1 chain with W69L, S70G, Q71Y, N72H, N73D, R74H, E75A
notes: Del 1-8
B10: 3A3 PR3 (designed binder)
chain: B1 chain with W69L, S70A, Q71Y, N73G, L76I, F77I
notes: Del 1-8
B11: 3′A8 PR4 (designed binder)
chain: B1 chain with W69V, S70A, Q71W, N72D, N73D, R74H, F77L
notes: Del 1-8
B12: 3′B2 PR4 (designed binder)
chain: B1 chain with W69V, S70G, Q71R, N73D, F77L
notes: Del 1-8
B13: 3′B4 PR4 (designed binder)
chain: B1 chain with W69V, S70A, Q71W, N73G, R74H, F77M
notes: Del 1-8
B14: 3C9 PR3 (designed binder)
chain: B1 chain with W69L, S70V, Q71R, N73D, R74H, F77L
notes: Del 1-8
B15: 3′A7 PR4 (designed binder)
chain: B1 chain with W69L, Q71D, N72S, N73G, R74H, E75A
notes: Del 1-8
B16: 3G2 PR3 (designed binder)
chain: B1 chain with W69F, S70G, Q71P, N72S, N73D, R74H, E75V, F77L
notes: Del 1-8
B17: 3F8 PR3 (designed binder)
chain: B1 chain with W69V, S70A, N73G, R74H, F77K
notes: Del 1-8
B18: 3′B11 PR4 (designed binder)
chain: B1 chain with W69E, S70T, Q71W, N73D, R74H, L76I, F77R
notes: Del 1-8
B19: 3C3 PR3 (designed binder)
chain: B1 chain with W69M, S70E, N73G, R74H
notes: Del 1-8
B20: 3F10 PR3 (designed binder)
chain: B1 chain with W69L, S70A, N72D, N73D, R74H, F77L
notes: Del 1-8
B21: 3′B1 PR4 (designed binder)
chain: B1 chain with W69E, S70A, Q71R, N73G, F77L
notes: Del 1-8
B22: 3B5 PR3 (designed binder)
chain: B1 chain with W69F, S70G, N73G, R74H, E75A, F77L
notes: Del 1-8

What follows are binders tested against T1, human vascular endothelial growth factor receptor-2 Fc chimera (KDR-Fc) (human, UniProt P35968 20-764) (assay: radioactive equilibrium binding, 1 nM KDR-Fc).
T1 construct: range 1-764; also called human VEGFR-2; VEGF-R2-Fc; not shown: human IgG1 Fc
T1 sequence (P35968 20-764 limits assumed, change not shown, form in doubt): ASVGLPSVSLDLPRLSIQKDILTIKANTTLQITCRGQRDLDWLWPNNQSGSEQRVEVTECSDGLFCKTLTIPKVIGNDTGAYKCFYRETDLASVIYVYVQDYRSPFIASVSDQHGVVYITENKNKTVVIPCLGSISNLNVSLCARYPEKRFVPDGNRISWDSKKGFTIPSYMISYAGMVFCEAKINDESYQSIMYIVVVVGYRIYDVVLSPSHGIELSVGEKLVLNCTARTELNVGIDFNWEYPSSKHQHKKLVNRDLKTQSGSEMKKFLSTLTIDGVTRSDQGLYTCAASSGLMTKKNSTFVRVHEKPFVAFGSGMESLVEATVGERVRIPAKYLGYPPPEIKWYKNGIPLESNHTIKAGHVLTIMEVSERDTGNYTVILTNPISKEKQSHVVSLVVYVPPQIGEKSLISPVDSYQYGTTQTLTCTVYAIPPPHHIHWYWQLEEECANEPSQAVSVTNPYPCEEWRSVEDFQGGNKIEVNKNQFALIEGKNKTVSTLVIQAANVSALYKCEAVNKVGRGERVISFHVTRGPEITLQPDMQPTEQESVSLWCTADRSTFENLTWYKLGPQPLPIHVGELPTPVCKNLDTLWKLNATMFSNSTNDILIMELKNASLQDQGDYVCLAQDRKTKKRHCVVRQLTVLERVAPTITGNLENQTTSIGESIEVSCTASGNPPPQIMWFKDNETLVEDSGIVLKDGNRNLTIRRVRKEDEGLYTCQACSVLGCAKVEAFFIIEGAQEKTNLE
Experimental: To prepare ³⁵S-labeled binding proteins for analysis, mRNA was prepared as described above for RNA-protein fusion production but the linker ligation step was omitted. The mRNA was expressed using rabbit reticulocyte lysate translation kit (Ambion) in the presence of ³⁵S-labeled Met at 30° C. for 1 hour. Expressed protein was purified on M2-agarose Flag beads (Sigma) as described above. This procedure produced the encoded protein without the nucleic acid tail. In a direct binding assay, VEGF-R2-Fc fusions in concentrations ranging from 0 to 200 nM were added to a constant concentration of the purified protein (0.2 or 0.5 nM) and incubated at 30° C. for 1 hour in buffer B. The receptor-binder complexes were captured using Protein A magnetic beads for another 10 minutes at room temperature using a Kingfisher™ The beads were washed with six reaction volumes of buffer B. The protein was eluted from the beads with 100 μL of 0.1 M KOH. […] of the reaction mixture and elution were dried onto a LumaPlate-96 (Packard) and the amount of ³⁵S on the plate was measured using a TopCount NXT instrument (Packard). The amount of fibronectin-based scaffold protein bound to the target was estimated as a percent of radioactivity eluted from Protein A magnetic beads compare to radioactivity in the reaction mixture. Nonspecific binding of fibronectin-based scaffold proteins to the beads was determined by measuring binding in the absence of KDR-Fc and represented less than 1-2% of the input. Specific binding was obtained through subtraction of nonspecific binding from total binding. Data was analyzed using the GraphPad Prizm software (GraphPad Software, Inc, San Diego, Calif.), fitted using a one site, non-linear binding equation.
For B1, the “Binding to 1 nM KDR, %” value was 23%.
With B2 the “Binding to 1 nM KDR, %” value was 19%.
With B3 the “Binding to 1 nM KDR, %” value was 21%.
For B4, the “Binding to 1 nM KDR, %” value was 25%.
In the case of B5, the “Binding to 1 nM KDR, %” value is reported as 28%.
In the case of B6, the “Binding to 1 nM KDR, %” value is reported as 17%.
For B7, the “Binding to 1 nM KDR, %” value was 24%.
In the case of B8, the “Binding to 1 nM KDR, %” value is reported as 20%.
In the case of B9, the “Binding to 1 nM KDR, %” value is reported as 14%.
For B10, the “Binding to 1 nM KDR, %” value was 23%.
For B11, the “Binding to 1 nM KDR, %” value was 27%.
B12 was tested, and the “Binding to 1 nM KDR, %” value was 29%.
In the case of B13, the “Binding to 1 nM KDR, %” value is reported as 38%.
In the case of B14, the “Binding to 1 nM KDR, %” value is reported as 16%.
In the case of B15, the “Binding to 1 nM KDR, %” value is reported as 34%.
For B16, the “Binding to 1 nM KDR, %” value was 20%.
In the case of B17, the “Binding to 1 nM KDR, %” value is reported as 17%.
For B18, the “Binding to 1 nM KDR, %” value was 23%.
For B19, the “Binding to 1 nM KDR, %” value was 17%.
B20 was tested, and the “Binding to 1 nM KDR, %” value was 16%.
In the case of B21, the “Binding to 1 nM KDR, %” value is reported as 25%.
In the case of B22, the “Binding to 1 nM KDR, %” value is reported as 20%.
